Results reported in the supplement of paper PMC7877785.
± gives the uncertainty stated by the source.

Experiment: self-splicing fitness, log relative to wild type (ln ratio); higher = more splicing; Tetrahymena group I intron in knt gene, E. coli kanamycin selection, DiMSum; sequences stand for … in CUCUCU…GGAGGGAAAAGUUAUCAGGCAUGCACCUGGUAGCUAGUCUUUAAACCAAUAGAUUGCAUCGGUUUAAAAGGCAAGACCGUCAAAUUGCGGGAAAGGGGUCAACAGCCGUUCAGUACCAAGUCUCAGGGGAAACUUUGAGAUGGCCUUGCAAAGGGUAUGGUAAUAAGCUGACGGACAUGGUCCUAACCACGCAGCCAAGUCCUAAGUCAACAGAUCUUCUGUUGAUAUGGAUGCAGUUCACAGACUAAAUGUCGGUCGGGGAAGAUGUAUUCUUCUCAUAAGAUAUAGUCGGACCUCUCCUUAAUGGGAGCUAGCGGAUGAAGUGAUGCAACACUGGAGCCGCUGGGAACUAAUUUGUAUGCGAAAGUAUAUUGAUUAGUUUUGGAGUACUCGUGGUCG
How it was run: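 DiMSum derived fitness as the error-weighted combination of fold changes across replicates, kanamycin versus no kanamycin, normalised to wild type. E. coli BL21(DE3) held the library, which randomised all eight P1ex-region intron nucleotides within the knt kanamycin-resistance gene on pET-22b(+). Six replicate transformations grew overnight at 37°C or 30°C on LB agar with or without 25 μg/mL kanamycin, also containing 100 μg/mL carbenicillin, 50 μM IPTG and 0.2% rhamnose, and pooled colonies were amplicon-sequenced on an Illumina HiSeq 2500.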

| Sequence | self-splicing fitness (ln) (30 °C) | self-splicing fitness (ln) (37 °C) |
| --- | --- | --- |
| CGUCAGCAAUAUUACGUGCA | -0.497 ± 0.057 | -0.0444 ± 0.072 |
| CAAUAGCAAUAUUACGCUAC | -3.14 ± 0.22 | -2.08 ± 0.26 |
| CCGUAGCAAUAUUACGGACU | -4.02 ± 0.22 | -2.54 ± 0.2 |
| AGCAAGCAAUAUUACGGUAU | -2.35 ± 0.075 | -0.546 ± 0.068 |
| AAAUAGCAAUAUUACGAUGA | -0.773 ± 0.096 | -0.0131 ± 0.11 |
| CCGGAGCAAUAUUACGCAAA |  | -2.55 ± 0.33 |
| AUCCAGCAAUAUUACGUUUC | -4.16 ± 0.25 | -2.05 ± 0.2 |
| CGUCAGCAAUAUUACGAAUG | -0.494 ± 0.077 | -0.0535 ± 0.093 |
| GCGCAGCAAUAUUACGCCUC | 0.178 ± 0.29 | -1.24 ± 0.29 |
| CUUUAGCAAUAUUACGCCAG | -1.65 ± 0.28 | -0.616 ± 0.28 |
| UAGUAGCAAUAUUACGAUCU | -1.22 ± 0.11 | -0.472 ± 0.13 |
| UAUCAGCAAUAUUACGUUAG | -1.22 ± 0.095 | -1.03 ± 0.094 |
| GAAUAGCAAUAUUACGAGCC | -1.48 ± 0.17 | 0.00455 ± 0.17 |
| ACGUAGCAAUAUUACGGCCU | -0.463 ± 0.12 | 0.149 ± 0.13 |
| AGCUAGCAAUAUUACGGCAU | -0.602 ± 0.11 | -0.476 ± 0.14 |
| CCGGAGCAAUAUUACGGGUG | -1.61 ± 0.093 | -1.09 ± 0.1 |
| CGCCAGCAAUAUUACGGAUG | -2.64 ± 0.1 | -1.25 ± 0.087 |
| CAUAAGCAAUAUUACGUCUA | -2.41 ± 0.14 | -1.4 ± 0.11 |
| AAUAAGCAAUAUUACGUCCG | -1.15 ± 0.11 | -0.82 ± 0.15 |
| AAAAAGCAAUAUUACGGGGU | -3.62 ± 0.16 | -2.32 ± 0.17 |
| UACCAGCAAUAUUACGGGCA | -0.875 ± 0.054 | 0.469 ± 0.087 |
| UCAGAGCAAUAUUACGCGUA | -2.57 ± 0.32 | -0.569 ± 0.16 |
| GACGAGCAAUAUUACGUUCC | -3.47 ± 0.23 | -2.65 ± 0.36 |
| AUCAAGCAAUAUUACGGUUC | -3.53 ± 0.24 | -2.01 ± 0.13 |
| CGAUAGCAAUAUUACGGAAA | -3.34 ± 0.24 | -1.53 ± 0.21 |

| Sequence | self-splicing fitness (ln) (30 °C) | self-splicing fitness (ln) (37 °C) |
| --- | --- | --- |
| AUGAAGCAAUAUUACGGAUC | -0.696 ± 0.09 | -0.0788 ± 0.099 |
| AUAAAGCAAUAUUACGCGCC | -0.37 ± 0.13 | -0.473 ± 0.2 |
| GAAGAGCAAUAUUACGUGAG | -2.97 ± 0.19 | -1.11 ± 0.22 |
| CAGCAGCAAUAUUACGUUAU | -3.77 ± 0.19 | -2.93 ± 0.15 |
| UUAGAGCAAUAUUACGUUCG | -1.22 ± 0.1 | -0.767 ± 0.15 |
| AUGUAGCAAUAUUACGGUGG | -3.1 ± 0.27 | -2.77 ± 0.24 |
| ACUAAGCAAUAUUACGUGAG | -0.615 ± 0.057 | -0.636 ± 0.076 |
| GGGGAGCAAUAUUACGACAC | -0.721 ± 0.14 | -0.843 ± 0.24 |
| UGGUAGCAAUAUUACGCGUU | -2.76 ± 0.13 | -1.32 ± 0.12 |
| AUACAGCAAUAUUACGUAAG | -0.561 ± 0.05 | -0.0861 ± 0.068 |
| CAAUAGCAAUAUUACGUGCC | -2.98 ± 0.26 | -3.02 ± 0.32 |
| UGCCAGCAAUAUUACGGUAA | -1.15 ± 0.055 | -0.9 ± 0.059 |
| AACGAGCAAUAUUACGCACU | -1.23 ± 0.11 | -0.611 ± 0.11 |
| CUAUAGCAAUAUUACGGAAC |  | -1.63 ± 0.49 |
| CUCAAGCAAUAUUACGGAGA | -2.83 ± 0.19 | -1.98 ± 0.15 |
| UAAUAGCAAUAUUACGCUGG | -1.95 ± 0.14 | -1.85 ± 0.16 |
| UACUAGCAAUAUUACGCUUG | -1.44 ± 0.1 | -1.64 ± 0.14 |
| UGCCAGCAAUAUUACGGGAG | -2.75 ± 0.11 | -0.763 ± 0.1 |
| CAGAAGCAAUAUUACGCACG | -0.596 ± 0.072 | -0.261 ± 0.08 |
| GCAGAGCAAUAUUACGAAGU | -2.88 ± 0.12 | -1.03 ± 0.13 |
| UGAAAGCAAUAUUACGCGUA | -1.31 ± 0.12 | -0.174 ± 0.13 |
| GUAGAGCAAUAUUACGGCUG | -1.04 ± 0.13 | -0.584 ± 0.14 |
| GAUUAGCAAUAUUACGUAGA | -1.92 ± 0.15 | -0.933 ± 0.14 |
| GAGCAGCAAUAUUACGGUAA | -1.95 ± 0.13 | -0.00417 ± 0.12 |
| AAAUAGCAAUAUUACGGGUU | -1.92 ± 0.14 | -0.924 ± 0.2 |

| Sequence | self-splicing fitness (ln) (30 °C) | self-splicing fitness (ln) (37 °C) |
| --- | --- | --- |
| UCCAAGCAAUAUUACGGCUG | -2.69 ± 0.15 | -3.33 ± 0.22 |
| UCUCAGCAAUAUUACGUGAC | -2.02 ± 0.39 | -1.82 ± 0.37 |
| GGGCAGCAAUAUUACGUAGG | -2.38 ± 0.075 | -1.32 ± 0.091 |
| AUUGAGCAAUAUUACGAGGC | -3.05 ± 0.36 | -2.78 ± 0.4 |
| AAAUAGCAAUAUUACGAAAU | -3.02 ± 0.15 | -1.2 ± 0.13 |
| UCCAAGCAAUAUUACGAGUC | -3.66 ± 0.19 | -2.97 ± 0.24 |
| CAUAAGCAAUAUUACGUGUA | -2.6 ± 0.14 | -1.77 ± 0.18 |
| CCGUAGCAAUAUUACGGAGG | -3.6 ± 0.17 | -3.34 ± 0.25 |
| CCCAAGCAAUAUUACGGUCG | -2.3 ± 0.094 | -0.827 ± 0.094 |
| GCGAAGCAAUAUUACGUUAC |  | -2.72 ± 0.43 |
| ACAAAGCAAUAUUACGCGCG | -1.11 ± 0.078 | -0.453 ± 0.099 |
| AUGUAGCAAUAUUACGGGGA | -2.26 ± 0.21 | -2.48 ± 0.21 |
| UUGAAGCAAUAUUACGUGCG | -0.232 ± 0.063 | -0.131 ± 0.078 |
| UUUCAGCAAUAUUACGGAUU | -1.63 ± 0.083 | -0.55 ± 0.097 |
| AAAUAGCAAUAUUACGGGCA | -1.22 ± 0.11 | -0.312 ± 0.14 |
| CGGUAGCAAUAUUACGUACG | -1.3 ± 0.12 | -0.879 ± 0.16 |
| AGACAGCAAUAUUACGUGGA | -3.96 ± 0.24 | -2.37 ± 0.2 |
| UAGCAGCAAUAUUACGCGCU | -2.62 ± 0.12 | -1.6 ± 0.12 |
| GAUGAGCAAUAUUACGCUGU | -3.68 ± 0.26 | -2.35 ± 0.26 |
| UCUUAGCAAUAUUACGCUAG | -2.15 ± 0.19 | -2.47 ± 0.28 |
| CCAAAGCAAUAUUACGGCUC | -3.44 ± 0.29 | -2.32 ± 0.25 |
| UUGCAGCAAUAUUACGUAAU | -2.83 ± 0.098 | -2.24 ± 0.14 |
| CGCUAGCAAUAUUACGUGUU | -4.69 ± 0.29 | -3.17 ± 0.26 |
| UCCUAGCAAUAUUACGUACG | -3.14 ± 0.18 | -1.78 ± 0.2 |
| GCACAGCAAUAUUACGAGGG | -1.9 ± 0.091 | -1.14 ± 0.14 |

| Sequence | self-splicing fitness (ln) (30 °C) | self-splicing fitness (ln) (37 °C) |
| --- | --- | --- |
| AUGUAGCAAUAUUACGGAAC |  | -1.16 ± 0.41 |
| UUUUAGCAAUAUUACGAGGA | -1.04 ± 0.17 | -1.3 ± 0.21 |
| UCUCAGCAAUAUUACGCAGG | -4.14 ± 0.42 | -2.28 ± 0.25 |
| CCUAAGCAAUAUUACGUAGC | -4.03 ± 0.34 | -2.21 ± 0.23 |
| CUGAAGCAAUAUUACGCAGG | -1.8 ± 0.082 | -1.77 ± 0.12 |
| GUUUAGCAAUAUUACGUGUC | -0.806 ± 0.17 | -1.76 ± 0.17 |
| UCGAAGCAAUAUUACGUCGG | -2.65 ± 0.17 | -3.7 ± 0.31 |
| CAUGAGCAAUAUUACGAGCC | -3.05 ± 0.41 |  |
| GUAAAGCAAUAUUACGAUAC | -0.815 ± 0.14 | -0.547 ± 0.16 |
| GCUAAGCAAUAUUACGUGAU | -1.18 ± 0.073 | -0.96 ± 0.11 |
| CAUCAGCAAUAUUACGCAGU | -2.02 ± 0.089 | -1.78 ± 0.097 |
| AUUAAGCAAUAUUACGCCAC |  | -1.53 ± 0.39 |
| UUGAAGCAAUAUUACGACGU | 0.216 ± 0.046 | 0.439 ± 0.06 |
| GAAAAGCAAUAUUACGGAGU | -3.18 ± 0.15 | -2.11 ± 0.15 |
| AUUAAGCAAUAUUACGCACA | -0.525 ± 0.12 | -0.202 ± 0.13 |
| GCGCAGCAAUAUUACGAUAG | -2.97 ± 0.16 | -0.857 ± 0.12 |
| CUUGAGCAAUAUUACGCAGA | -1.11 ± 0.26 | -1.91 ± 0.3 |
| GGUCAGCAAUAUUACGCUUU | 0.129 ± 0.071 | -0.0673 ± 0.092 |
| ACCCAGCAAUAUUACGCAGU | -0.609 ± 0.055 | -0.106 ± 0.066 |
| CCGAAGCAAUAUUACGGAGG | -4.7 ± 0.31 | -2.44 ± 0.21 |
| GCAGAGCAAUAUUACGAGAA |  | -1.96 ± 0.32 |
| UGCAAGCAAUAUUACGGAGA | -2.45 ± 0.21 | -3.01 ± 0.29 |
